Laboratory results reported in paper PMC3506182 (Cancer research, 2012).

Molecular target: T1, recombinant human CCN6 (rhCCN6) protein, full length (human, UniProt O95389 24-354)
T1 sequence (looked up): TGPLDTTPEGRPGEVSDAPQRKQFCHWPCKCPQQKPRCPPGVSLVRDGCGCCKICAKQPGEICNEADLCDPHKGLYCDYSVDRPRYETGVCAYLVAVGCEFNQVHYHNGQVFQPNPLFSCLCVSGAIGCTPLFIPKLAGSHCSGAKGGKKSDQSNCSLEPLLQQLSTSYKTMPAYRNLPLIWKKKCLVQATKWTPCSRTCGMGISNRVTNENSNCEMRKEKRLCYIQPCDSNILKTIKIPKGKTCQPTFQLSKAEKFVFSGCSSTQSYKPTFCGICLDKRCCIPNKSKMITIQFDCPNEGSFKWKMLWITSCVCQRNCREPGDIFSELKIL
Test: SPR

B1: disulfide linked homodimer of biotin labeled rhBMP4 (Bio-BMP4) (ligand, human, UniProt P12644 293-408, looked up)
chain: SPKHHSQRARKKNKNCRRHSLYVDFSDVGWNDWIVAPPGYQAFYCHGDCPFPLADHLNSTNHAIVQTLVNSVNSSIPKACCVPTELSAISMLYLDEYDKVVLKNYQEMVVEGCGCR
modifications: biotin label (site not stated)
Kd: 200 nM
